Results as given in the supplement of paper PMC9170038.

Test system: MS2 coat protein
Assay: apparent KD of MS2 coat protein; designed switch direction (-1 OFF switch, 1 ON switch): -1; higher = weaker reporter binding
How it was run: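 Designed RNA switches with common flanks were transcribed on Illumina chips by stalled E. coli RNA polymerase and titrated with SNAP-549-labelled MS2 coat protein, from 0.7 or 1.5 nM doubling to 3 µM, in Tris-HCl pH 7.5 buffer with KCl, MgCl2, BSA, DTT, tRNA and Tween-20. Steps lasted 0.8–1.5 h (lowest) to 10–20 min (highest). Titrations ran without input, with 200 uM small-molecule ligand, or with an oligonucleotide input. Normalised cluster fluorescence was curve-fitted, and apparent KD is the per-design median over clusters.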

[1] = Eterna round: R95, input ligand: microRNA oligo, concentration not stated
[2] = input ligand: microRNA oligo, concentration not stated
[3] = Eterna round: R95, input ligand: FMN 200 uM
[4] = Eterna round: R95, input ligand: none

| Sequence | apparent KD of MS2 coat protein (input ligand: FMN 200 uM) [µM] | apparent KD of MS2 coat protein (input ligand: none) [µM] | apparent KD of MS2 coat protein [1] [µM] | apparent KD of MS2 coat protein [2] [µM] | apparent KD of MS2 coat protein [3] [µM] | apparent KD of MS2 coat protein [4] [µM] |
| --- | --- | --- | --- | --- | --- | --- |
| AAACAAGCAACGAGAUCCCACAUGAGGAUCACCCAUGUCAACUGGAGUUUUAAAUCUUUAGGCUCGUUUUAUAACAA [S_tov1_V1.2] (Eterna round: R97, puzzle: Sensor, turn-off variant 1) | 0.0504 | 0.0568 | – | – | – | – |
| UUUUAACAUGAGGAUCACCCAUGUGAGGAUAUCGAAAUUUAUAUUAAUAUUAAUUUAUCGAGAAGGCACAUUUU [JMF 32] (puzzle: Exclusion 1) | – | – | 0.108 | – | – | – |
| GGUCCUGAUGAUUUCCUAUACAUGAGGAUCACCCAUGUAUGUUUAUUUUGUUUUUAGCUUUUUGGUCGUCAAUAAUA [Mod-Hoo-honey-3] (Eterna round: R97, puzzle: Sensor, turn-off variant 1) | 0.0433 | 0.0434 | – | – | – | – |
| GAAAGGUAAGGAUAUGCGACUACGGUGAGAUGGUUGACCUGACAUGAGGAUCACCCAUGUAGAAGGUGCUCAAU [Eternabot (L2) Solution 33] (Eterna round: R97, puzzle: Exclusion 2) | 0.0678 | 0.0642 | – | – | – | – |
| CAGUACUGAGGAUAUACAUGAGGAUCACCCAUGUGCCUAAGGUAGGAUACUACCAUUAGUAGAAGGCAGUACUG [Fiskers Ex 3 828 mod 16] (puzzle: Exclusion 3) | – | – | 0.0136 | – | – | – |
| GCAGCGUAUGUAGGAUAUCGGUCAGUUUCUGAUCGAGAAGGACAUGAGGAUCACCCAUGUAUAUUCCGUCGUGAGACGGGCUGC [JL ENG1 3.69] (Eterna round: R96, puzzle: Exclusion NG 1) | 0.0236 | 0.0184 | – | 0.0143 | – | – |
| GAGUACAGAGGAUAUACAUGAGGAUCACCCAUGUGUUUCAGCUAGGAGACUAGCGAAAGUAGAAGGCUGUACUG [salish99_ex3_r4_006] (Eterna round: R97, puzzle: Exclusion 3) | 0.0234 | 0.0103 | – | – | – | – |
| GCCCUUAUUGUUAGGAUAUAACGGAAAUACAACCGUUAGAAGGAACAUGAGGAUCACCCAUGUGCCAUACAGCC [Eternabot (Original) Solution 39] (Eterna round: R97, puzzle: Brourd's mod of Exclusion 4) | 0.119 | 0.0295 | – | – | – | – |
| CCAUCACAUGAGGAUCACCCAUGUCAGGAUAUCUCAGUGCAUCCACACGGACGCAUCAAGAGAAGGGACAAAAC [Vinxlusion 4 - Jieux - Exclusion 1] (Eterna round: R97, puzzle: Exclusion 1) | 0.0359 | 0.0348 | – | – | – | – |
| CCAGCGUAUGUGAGGAUAUGCUGGUCCUUGGAUCAGCAGAAGGCACAUGAGGAUCACCCAUGUGAGAACGUUGG [JL bmx4 3.38] (puzzle: Brourd's mod of Exclusion 4) | – | – | 0.0246 | – | – | – |
| UAUGACUGAGGAUAUUGUACUGCUGACAUGAGGAUCACCCAUGUAUGCUAACUCGGCCGUCGAGAAGGCAGUUAUG [BotMod 26 - Jieux - Exclusion 5] (Eterna round: R97, puzzle: Exclusion 5) | 0.0165 | 0.052 | – | – | – | – |
| CUAUAAGGUGUUAGGAUAUCGGCUCGAGGUACUAGCGAGAAGGAACAUGAGGAUCACCCAUGUGGUCAUGAUUU [Eternabot (L2) Solution 60] (Eterna round: R97, puzzle: Brourd's mod of Exclusion 4) | 0.152 | 0.139 | – | – | – | – |
| GAUUGACAUGAGGAUCACCCAUGUGAGGAUAUCGGCUGGACCGUGUUGGCUUGGCUUUCGAGAAGGCGCAUAGG [Exclusion 1 V47] (puzzle: Exclusion 1) | – | – | 0.0426 | – | 0.0539 | 0.0537 |
| UGAUCAGACCGAGGAUAUACAUGGAGGACGCACGUGAGUGCGUCCACUACAUGAGGAUCACCCAUGUAGAAGGCGGUCUGAUCU [JL ENG2 1.92] (Eterna round: R96, puzzle: Exclusion NG 2) | 1.1 | 0.144 | – | 0.13 | – | – |
| CUAGUAUAUCAGGAUAUGAUUUUAUAUAUUGGAUCAGAAGGGAUGACAUGAGGAUCACCCAUGUUGAGGAGUGA [JR_Ex6_Sub039] (Eterna round: R97, puzzle: Exclusion 6) | 0.257 | 0.103 | – | – | – | – |
| ACGAAGCUUUUUGCUCGUCACAUGAGGAUCACCCAUGUGGGCCCGGGCGCCCGGGCCGACAUCCCACUAGGACAUGU [#2] (Eterna round: R97, puzzle: Sensor, turn-off variant 1) | 0.104 | 0.122 | – | – | – | – |
| AAAAAGUCAGGAUAUGCGAAGGCGUCUGAUAGACGAGGCUAGCAGAAGGGACAUGAGGAUCACCCAUGUAAAGA [Mat - Exclusion 4 - D82] (Eterna round: R96, puzzle: Exclusion 4) | – | – | – | 0.0194 | – | – |

| Sequence | apparent KD of MS2 coat protein (input ligand: FMN 200 uM) [µM] | apparent KD of MS2 coat protein (input ligand: none) [µM] | apparent KD of MS2 coat protein [1] [µM] | apparent KD of MS2 coat protein [2] [µM] | apparent KD of MS2 coat protein [3] [µM] | apparent KD of MS2 coat protein [4] [µM] |
| --- | --- | --- | --- | --- | --- | --- |
| UUUAAUUUUUUUUUUUUACAAGCUUUUUGCUCGUCUUAUACAUGAGGAUCACCCAUGUAGAUGGGAAAUGAAUUAUC [JMF 98] (puzzle: Sensor v3, turn-off variant 2) | – | – | 0.144 | – | 0.0261 | 0.0227 |
| UGAUCAGACCGAGGAUAUAUAUGUAGGACCCACGUGAGUGGGUCCAGAACAUGAGGAUCACCCAUGUAGAAGGCGGUCUGAUCU [JL ENG2 1.88] (Eterna round: R96, puzzle: Exclusion NG 2) | 0.019 | 0.0162 | – | 0.0115 | – | – |
| UUUGUAUAGCAAGGAUAUGUUUAAUUAUAGUUGCCUCAUACAUGAGGAUCACCCAUGUUUUACUUACAGAAGGUGCAAUGAUUU [JR_ExcNG2_Sub035] (Eterna round: R96, puzzle: Exclusion NG 2) | – | – | – | 0.242 | – | – |
| GAUUAUGCGAGCUUUAGGGACAUGAGGAUCACCCAUGUUCGUCUUAUUGGUCUAAAUGCACUAACAUACCUAAAUCU [JMF 23] (puzzle: Sensor v3, turn-off variant 1) | – | – | 0.0224 | – | 0.0177 | 0.0193 |
| GGUUGGCGAGGAUAUACAUGAGGAUCACCCAUGUGAGAGAAACUAGUGAGGUCGAUUGGUAGAAGGCGCUGACG [Mat - Exclusion 3 - Mod of JL D81] (puzzle: Exclusion 3) | – | – | 0.204 | – | 0.0253 | 0.129 |
| GUAUGGUGAGGAUAUCGCCCUGCCUGCUCAAAGGCGAUGGACGAGAAGGCACAUGAGGAUCACCCAUGUCUGGG [Eternabot (L2) Solution 65] (Eterna round: R97, puzzle: Exclusion 4) | 0.161 | 0.539 | – | – | – | – |
| UUUUAACAUGAGGAUCACCCAUGUGAGGAUAUCGAAAUUUAUAUUAAUAUUUAUAAAACGAGAAGGCACAUUUU [JMF 51] (puzzle: Exclusion 1) | – | – | 0.0786 | – | – | – |
| CGUCUGUAAGGAUAUGGUUGCAUCAACAUGAGGAUCACCCAUGUAACAUGGGACUAGUGAUUAGAAGGUACGAACG [EX5 #58] (Eterna round: R97, puzzle: Exclusion 5) | 0.156 | 0.142 | – | – | – | – |
| AGUACUAACACGUAAGUGUUAGUACUAUAAGCUUGUGUUACAUGAGGAUCACCCAUGUCCUCAUAAGCUCGUCUUAA [Mat - Sensor v3 - Turn-off var 2 - D71] (puzzle: Sensor v3, turn-off variant 2) | – | – | 0.132 | – | 0.0343 | 0.0394 |
| GGUGGACAUGAGGAUCACCCAUGUGAGGAUAUCGGCUAUCUUCUCGCUGUCGGUUGCUCGAGAAGGCACAUUGU [Exclusion 1 V94] (puzzle: Exclusion 1) | – | – | 0.0522 | – | – | – |
| GAAUUGUGAGGAUAUUAGUUGUACGUCAAUAGACGUAUAAGUGAGAAGGCACAUGAGGAUCACCCAUGUUCCUG [salish99_ex4_r4_401] (Eterna round: R97, puzzle: Exclusion 4) | 0.0578 | 0.0194 | – | – | – | – |
| UUAUUGUAUGUAGGAUAUGCGUAUUAUUGUUAUGCAGAAGGACAUGAGGAUCACCCAUGUAUAUUAUUGUUAUAUAUUAUAUAU [Title] (Eterna round: R96, puzzle: Exclusion NG 1) | 0.0609 | 0.0267 | – | 0.0227 | – | – |
| GCGCCAUCGUGAGAUGGCGUAAUUACAUGAGGAUCACCCAUGUAGGAUAUCGAUUGCUUUGCAGUCGAGAAGGGCGUGAUAAUU [JL ENG3 3.70] (Eterna round: R96, puzzle: Exclusion NG 3) | 0.0777 | 0.0755 | – | 0.0525 | – | – |
| CCUCCACAUGAGGAUCACCCAUGUCAGGAUAUCGUGUGUGCGUUUUCGGUCUUUCGCGCGAGAAGGGACGACUG (puzzle: Exclusion 1) | – | – | 0.0275 | – | – | – |
| CUAGAUCUUCGGAUCUAGUACAUGAGGAUCACCCAUGUUACGAGCAGAUCUUCAUACAAGCUUUUUGCUCGUCUUAU [Sensor v3 - Turn-off variant 1 - 33] (puzzle: Sensor v3, turn-off variant 1) | – | – | 0.0195 | – | 0.0334 | 0.0307 |
| ACAUCACAGCUAGGAUAUAGAUGACAUGAGGAUCACCCAUGUUGUCCCAUGUUGACGAAAACCGACUAGAAGGAGCUACAGAUG [Ex NG2 #5] (Eterna round: R96, puzzle: Exclusion NG 2) | 0.0593 | 0.0501 | – | 0.0526 | – | – |
| CUCGUGCGGCUUUGCUGUGCGGGUACAUGAGGAUCACCCAUGUAGGAUAUGGUGCGCUUUGCGUGCCAGAAGGGCGUGCGUUGG [salish99_ExNG3_r04_011] (Eterna round: R96, puzzle: Exclusion NG 3) | 0.0366 | 0.0273 | – | 0.0271 | – | – |
